Measured values published in a protein production outcome set (Wang et al. 2014).

Assay: label from the status in PepcDB records
In the case of “MFITLSERFGLLLAGGFAIMTLAPLDKLGPGRTRSWRATALLVVLFSLFTILGTYNGNIVFQSFANLRAMGAVTAGLFGGPMVGALTGLIAGGHRYFIDVGGFSAVPCGLATFLEGLAAGLFAWRFPSRSLDWGTAMTFAAVGEAVHMCLVLGLARPYAQAVDLVEVIGLPMILLNGVGAAIFVQALRMQMHFRDLRDSSQARQILSIANRTLPHLRAGLSAASARATAEIILDETRVAAVALTSNDMVMAHVGAASDHHRAGHSVCTQATRRVATDGIPLFVTGHDEIGCQLEACPLCSAIIVPLRKGDTILGCLKLYGTKDRPLDQTLFELAKGLADLFATQIELEDIGIKNQLLARAEIRRLQAQINPHFLFNSLNTVASFCRTAPGQARELILDLARYMRRNLDTSREAIHLAEEVEQIRAYLVIEKARFGERIRAVIDIDPETEHCLVPPLLIQPLVENSVRHGILGNEEGGVVRLATSMEDGHVVVVVEDDGAGMPESTRQGILNGTPVTAHGEGIGASNCNQRLVQLYGPAYALSIDSAPGMGTRITFRVPASTDAEVFASAAA”, the protein production is reported as “failed”.
With “MFKELHPNIRARILIQFLSKIIGSMIFPFMAIYFSMEINSKVAGILLMINVLAQFLAGMYGGHLADIIGRKKLMVAGELLKVFAFLGMVLCNSPVFHSPWITFVMLLLIGVAQGLINPAGEAMLIDVSTPENRSFMYSVSYWANNLSMMIGIIVGGWFFIDYLFPLLVALFIMSFVTAWLTISLISETLKQKAVLKKGSYGLVGMLKNYGQVLHDCRFLLYTLGGIAVMSIEFQRSNYISVRLAEDFQALLVHFGPLGNITLNGVQIVSVLTAVNTLFIVLFTVPVARFVTKRAQQPIMYVGFTLFAIGFAVCAFANNLAVLLLATAVLSIGELLYVPTRQTILAAIVDDNRRGAYMAFNGIIFQIGKMIGSVSLVFAPFIGKYGMATFTILLGVLSIVFSAAALKSGWKKVLAK” the protein production was “failed”.
In the case of “MFKLVFKQYKCKSTSPDLTEVVKIDDCVVKGNDQEKSDNNIVQRLSISNVESLQTMPGVKSPKDWRTYTLTNHPGIIVIRNPFSERGRRYWSARCLRDFPRTPNIVNLNERLFDESVRSDWWKQLNLCSDGVEFQRIKSAMRWTTFGYHHNWDTKIYDEEMQSPFPEDLSSLCGLFAQALGYADFKPEAAIVNYYPVGSTLSGHTDHSEPNKSAPLFSFSFGQTAIFLIGGRSLEEKPTAIYLQSGDVMIMSGESRLCYHAVPRIIKTQASATLSLIIEDVDNADIKTRTIDKDLFHDVGNPQFWEPFSRYMDDSRININIRQVLNPGDVKL”, the protein production is reported as “failed”.
In the case of “MFKSVAKLGKSPIFYLNSQRLIHIKTLTTPNENALKFLSTDGEMLQTRGSKSIVIKNTDENLINHSKLAQQIFLQCPGVESLMIGDDFLTINKDRMVHWNSIKPEIIDLLTKQLAYGEDVISKEFHAVQEEEGEGGYKINMPKFELTEEDEEVSELIEELIDTRIRPAILEDGGDIDYRGWDPKTGTVYLRLQGACTSCSSSEVTLKYGIESMLKHYVDEVKEVIQIMDPEQEIALKEFDKLEKKLESSKNTSHEK”, the protein production is reported as “failed”.
In the case of “MFKTLEVKYMEDRVLDWAVYEKTAREMVAEGLVLLKNDNKALPLKQGETVSVFGRMQNHYYKSGTGSGGMVNVAKVVGILDALNECKDVNVNQKLAETYAAWDKEHPVELGLGWGQEPWSQAEMPVTEELVQEAAGESDSAIVIIARTAGEDKDNTLEKGAFMLTDIETDMLRLVRENFQKMVVLLNVGGLIDMSFLDTISPDACMYVWQGGMVGGYGVVDVLVGDVSPSGKLTDTIAYDIKDYPAYDNFGGEERNFYAEDIYVGYRYFETFAKDKVRYPFGYGLSYTDFKIGVKHASLDFEKGVANICVKVTNTGKRLGKEVVQVYGEMPQGRLGKPSRVLIDFAKTKELVPGLSDELKFEIPLDRMASFDDSGATGHRNCYVLEAGDYTIHVGNSIRNTTECLFFELAETVELQKLQEALAPYEKFDRMKPFCDENGRMLIEYEETPLVTVDMYDRREQELPEEIPVTGDKGITLLDVREGKATMDEFIAQFDDEDLACFVRGEGMGSSLVTAGTASAFAGVSPNLIAHKIPSVCCDDGPSGMRLDSGMKAFSLPNGTLCGCSFNKELNTRLYALLGLEMTANKVEVLLGPGMNIHRHPLNGRNFEYFSEDPYLTGSIATAQLEGLKSSGVSGTIKHFCGNNQEYHRHTMDSVISQRALREVYLKGFEIAVKSGYADSVMTTYGLVNGLYTAGSYDLNTTILRNEWGFTGVVMTDWWASINRRGMEPDANDFATMIQAQNDMYMCCPDGSKNMGGDNVLEALHDGRILRAELQRIAKNVCSFAMDTNAFKRLVGEPVEIEIINRPKQADDFSIDDVEYINVDRDILIDLTEKASTADTNYVIALDVEHPGEYDVSLRGSSTLEKLAQLPCTLFFNGFPVSNFTFNGTDGKDVVIRKEVKFYSRFNVLRLYVKSNGLDLKDIKFSFEKEF”, the protein production is reported as “failed”.
With “MFLKIPFKILRLATAYVRIRVKNIILKLKLVFGKNVFIGSNVVIDPGYHWLISIGNNSAITNGVTILSHDGSLSRHTGYTKIGKVSIGSNTFIGVKSIILPGVSIGNNVIIGAGSVVTKDIPDNSVAIGNPAVVVGSIKDYINKHKRMIRTSEVYECQSLLKDNIRDFKGEIGYVKTNFENHEDL” the protein production was “failed”.
In the case of “MFLKKKLSAGKSVVGTMLNLVYNPDIVRIYAEAGLDYFIVDCEHAAYTFREINHLVSVAKNAGVSVLVRIPQVDRAHVQRLLDIGAEGFMIPGVQSAETMRETVRLAKYPPLGERGVGGSIVTDFKPVNWAEWVQERNDEIFIMAQIEHVKAVEDIDSILAVQGVDAVIFGPRDLSNDLGIIGQTEHPKVYECYEKVYRAADRQGVVKGFFTAADAAKMGWAVERGAQMLLWSGDVAALQTYTAKGVKTIKELPGFNP”, the protein production is reported as “not failed”.
With “MFLLSGDPCFKTPPSTAKSISIPGQDSSLQLTCKGGGTSSGGSSTNSLTGSRPPKARPTILSSGLPEEPDQNLSSPEEVFHSGHSRNSSYASQQSKISGYSTEHSRSSSLSDLTHRRNTSTSSSASGGLGMTVEGPEGSEREHRPPEKPPRPPRPLHLSDRSFRRKKDSVESHPTWVDDTRIDADAIVEKIVQSQDFTDGSNTEDSNLRLFVSRDGSATLSGIQLATRVSSGVYEPVVIESH” the protein production was “failed”.
In the case of “MFLPKFNPIRSFSPILRAKTLLRYQNRMYLSTEIRKAIEDAIESAPVVLFMKGTPEFPKCGFSRATIGLLGNQGVDPAKFAAYNVLEDPELREGIKEFSEWPTIPQLYVNKEFIGGCDVITSMARSGELADLLEEAQALVPEEEEETKDR”, the protein production is reported as “failed”.
With “MFLRTQARFFHATTKKMDFSKMSIVGRIGSEFTEHTSANNNRYLKYSIASQPRRDGQTNWYNITVFNEPQINFLTEYVRKGALVYVEADAANYVFERDDGSKGTTLSLVQKDINLLKNGKKLEDAEGQENAASSE” the protein production was “failed”.
For “MFNKISLEIMKRSALTLMPTVLALAVGMAMPAVQAAINSDASVVGTESQWWNTYKVTLTNNGNQPVELRDASIAFDTNLSLSTPSWSAQGISYPSMSFSSNAQGSVFSNRLTLSFDQGSWVKTQLLPGASIDLTLGVSGVLELSLLQSTIALETDGEVEPGEPEISLELASPVQGAEFIEGQTVAIVANVTATNTTVKTVTFLVDGEQIALLEQAPFQASWTAAGEGAHSIKAIVEDASGLLKEQAVRITVKAEEIDPPVEPEVPVAPVIELTNPRNGQSVFLGKVTTLAANATDENNDLTAVEFLVNGESIGRVTQAPYQLAWTPVALGQYTIEAIAYDAAGHQTQTPMVTVNAKEMGTGNLSCDIKQIYREDGTECMGDDHPRRIIGYYTSWRTGKNGLPAYLAGDLPWEKLTHINYAFASINKSDFSMQVDDSATKMTWENVPGAEMDPSLPYQGHFNLLSKFKKQYPDVKTLISVGGWAETGGFYPMTTDLASCSVNMEGIKAFNKSAVDFIRQYDFDGVDIDYEYPSSMKDSGNPVDFEQSNKCRGQLWDNYMVMMTELRKALDKAGEEDGRRYMLTIASPSSAYLLRGMQDFAMQDVLDYVNIMSYDLHGTWNEFVGPQAALFDDGKDAELAKWGVYTTAEYQGIGYLNQAWTHHFFRGAFKPSQINMGIPYYTRGWQGVSGGDKGLWGRAVEPNQSSCPEGTTVCGWGAEGTDNIWHDVDANGNEIKAGVVPMWHAMNLMHAEKLGIDGMPSYGPAWGMDPNNPKHLIEGKYERVWSQELQTAWLWNDTKKVFLSIEDKDSLKPKLDYIVDNGLGGMMIWEMAGDYSYDAVKREYVIGSDMTSYAHEVFAAAKPMDIRHNDLPQPDSVIDVTVSTTEWPEGDSNYPINPKLVFTNHSNVAIPGGSTIEFLMPTSSGDIVKDWSGAGLKVIESGHTGSNFSVNGEKKLFHKVAVTLRSTETIPAGGEYSVDMVYYTPVSGVANGVRFIVGNETVGLKKDFPTLPAFEGATDGGNGNEGGAGQSCADAGINPNGLKVYPEFPRGDHAAGGDQLIHNGSVWQANWWTNSTPSSADASWKAVCKI”, the protein production was “failed”.
